According to article PMC10786891, “Massively parallel profiling of RNA-targeting CRISPR-Cas13d”:

T1: EsCas13d, nuclease-dead (Eubacterium siraeum, UniProt B0MS50, R295A;H300A;R849A;H854A)
T1 sequence: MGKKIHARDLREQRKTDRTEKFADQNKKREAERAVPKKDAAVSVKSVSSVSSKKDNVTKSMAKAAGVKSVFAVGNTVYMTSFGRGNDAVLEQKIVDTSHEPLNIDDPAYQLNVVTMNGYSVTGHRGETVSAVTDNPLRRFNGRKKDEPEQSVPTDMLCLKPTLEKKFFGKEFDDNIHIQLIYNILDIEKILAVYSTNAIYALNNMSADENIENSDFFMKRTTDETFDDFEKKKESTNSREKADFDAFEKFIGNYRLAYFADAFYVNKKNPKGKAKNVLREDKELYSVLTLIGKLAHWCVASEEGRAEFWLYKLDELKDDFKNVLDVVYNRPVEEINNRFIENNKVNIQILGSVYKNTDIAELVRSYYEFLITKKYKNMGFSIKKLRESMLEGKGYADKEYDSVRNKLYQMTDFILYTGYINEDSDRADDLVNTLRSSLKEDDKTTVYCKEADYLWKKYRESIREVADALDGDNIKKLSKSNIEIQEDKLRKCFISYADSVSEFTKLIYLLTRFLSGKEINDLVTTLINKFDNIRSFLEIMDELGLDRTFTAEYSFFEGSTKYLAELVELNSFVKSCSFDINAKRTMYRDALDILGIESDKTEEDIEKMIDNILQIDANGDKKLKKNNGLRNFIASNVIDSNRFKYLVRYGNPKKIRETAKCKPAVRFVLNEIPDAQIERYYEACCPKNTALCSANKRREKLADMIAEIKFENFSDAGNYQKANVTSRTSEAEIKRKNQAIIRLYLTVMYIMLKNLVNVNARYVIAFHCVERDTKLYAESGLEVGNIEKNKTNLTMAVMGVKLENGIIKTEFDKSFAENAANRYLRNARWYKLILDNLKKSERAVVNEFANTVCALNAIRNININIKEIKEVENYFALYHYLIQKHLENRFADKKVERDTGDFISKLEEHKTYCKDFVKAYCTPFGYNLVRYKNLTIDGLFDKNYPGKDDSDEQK

B1: target 1 MT 5'PFS CCG 3'PFS AGA (mixed)
RNA 1: CACCCGUGCAAAAAUGCAGGGGUCUAAAACUGAGCGGAUAACCUCUCUAUGG
RNA 2: GGGAAUGGAUCCACAUCUACGAAUUCCCGCCAUAGAGAGGUUAUCCGCUCAAGAAGAUCGGAAGAGCACACGU
B2: target 1 MT 5'PFS UGG 3'PFS UAA (mixed)
RNA 1: CACCCGUGCAAAAAUGCAGGGGUCUAAAACUGAGCGGAUAACCUCUCUAUGG
RNA 2: GGGAAUGGAUCCACAUCUACGAAUUCUGGCCAUAGAGAGGUUAUCCGCUCAUAAAGAUCGGAAGAGCACACGU
B3: target 1 MT 5'PFS GCG 3'PFS UAC (mixed)
RNA 1: CACCCGUGCAAAAAUGCAGGGGUCUAAAACUGAGCGGAUAACCUCUCUAUGG
RNA 2: GGGAAUGGAUCCACAUCUACGAAUUCGCGCCAUAGAGAGGUUAUCCGCUCAUACAGAUCGGAAGAGCACACGU
B4: target 1 MT 5'PFS GUA 3'PFS CUG (mixed)
RNA 1: CACCCGUGCAAAAAUGCAGGGGUCUAAAACUGAGCGGAUAACCUCUCUAUGG
RNA 2: GGGAAUGGAUCCACAUCUACGAAUUCGUACCAUAGAGAGGUUAUCCGCUCACUGAGAUCGGAAGAGCACACGU
B5: target 1 MT 5'PFS GGC 3'PFS CGU (mixed)
RNA 1: CACCCGUGCAAAAAUGCAGGGGUCUAAAACUGAGCGGAUAACCUCUCUAUGG
RNA 2: GGGAAUGGAUCCACAUCUACGAAUUCGGCCCAUAGAGAGGUUAUCCGCUCACGUAGAUCGGAAGAGCACACGU
B6: target 1 MT 5'PFS GUA 3'PFS CUU (mixed)
RNA 1: CACCCGUGCAAAAAUGCAGGGGUCUAAAACUGAGCGGAUAACCUCUCUAUGG
RNA 2: GGGAAUGGAUCCACAUCUACGAAUUCGUACCAUAGAGAGGUUAUCCGCUCACUUAGAUCGGAAGAGCACACGU
B7: target 1 MT 5'PFS GCG 3'PFS UAU (mixed)
RNA 1: CACCCGUGCAAAAAUGCAGGGGUCUAAAACUGAGCGGAUAACCUCUCUAUGG
RNA 2: GGGAAUGGAUCCACAUCUACGAAUUCGCGCCAUAGAGAGGUUAUCCGCUCAUAUAGAUCGGAAGAGCACACGU
B8: target 1 MT 5'PFS UAA 3'PFS CGA (mixed)
RNA 1: CACCCGUGCAAAAAUGCAGGGGUCUAAAACUGAGCGGAUAACCUCUCUAUGG
RNA 2: GGGAAUGGAUCCACAUCUACGAAUUCUAACCAUAGAGAGGUUAUCCGCUCACGAAGAUCGGAAGAGCACACGU
B9: target 1 MT 5'PFS ACG 3'PFS UGA (mixed)
RNA 1: CACCCGUGCAAAAAUGCAGGGGUCUAAAACUGAGCGGAUAACCUCUCUAUGG
RNA 2: GGGAAUGGAUCCACAUCUACGAAUUCACGCCAUAGAGAGGUUAUCCGCUCAUGAAGAUCGGAAGAGCACACGU
B10: target 1 MT 5'PFS GUU 3'PFS CCG (mixed)
RNA 1: CACCCGUGCAAAAAUGCAGGGGUCUAAAACUGAGCGGAUAACCUCUCUAUGG
RNA 2: GGGAAUGGAUCCACAUCUACGAAUUCGUUCCAUAGAGAGGUUAUCCGCUCACCGAGAUCGGAAGAGCACACGU
B11: target 1 MT 5'PFS GUA 3'PFS CUA (mixed)
RNA 1: CACCCGUGCAAAAAUGCAGGGGUCUAAAACUGAGCGGAUAACCUCUCUAUGG
RNA 2: GGGAAUGGAUCCACAUCUACGAAUUCGUACCAUAGAGAGGUUAUCCGCUCACUAAGAUCGGAAGAGCACACGU
B12: target 1 MT 5'PFS GAA 3'PFS AGG (mixed)
RNA 1: CACCCGUGCAAAAAUGCAGGGGUCUAAAACUGAGCGGAUAACCUCUCUAUGG
RNA 2: GGGAAUGGAUCCACAUCUACGAAUUCGAACCAUAGAGAGGUUAUCCGCUCAAGGAGAUCGGAAGAGCACACGU
B13: target 1 MT 5'PFS GCG 3'PFS UAG (mixed)
RNA 1: CACCCGUGCAAAAAUGCAGGGGUCUAAAACUGAGCGGAUAACCUCUCUAUGG
RNA 2: GGGAAUGGAUCCACAUCUACGAAUUCGCGCCAUAGAGAGGUUAUCCGCUCAUAGAGAUCGGAAGAGCACACGU
B14: target 1 MT 5'PFS ACC 3'PFS CCG (mixed)
RNA 1: CACCCGUGCAAAAAUGCAGGGGUCUAAAACUGAGCGGAUAACCUCUCUAUGG
RNA 2: GGGAAUGGAUCCACAUCUACGAAUUCACCCCAUAGAGAGGUUAUCCGCUCACCGAGAUCGGAAGAGCACACGU
B15: target 1 MT 5'PFS GAA 3'PFS AGA (mixed)
RNA 1: CACCCGUGCAAAAAUGCAGGGGUCUAAAACUGAGCGGAUAACCUCUCUAUGG
RNA 2: GGGAAUGGAUCCACAUCUACGAAUUCGAACCAUAGAGAGGUUAUCCGCUCAAGAAGAUCGGAAGAGCACACGU
B16: target 1 MT 5'PFS UAA 3'PFS CGG (mixed)
RNA 1: CACCCGUGCAAAAAUGCAGGGGUCUAAAACUGAGCGGAUAACCUCUCUAUGG
RNA 2: GGGAAUGGAUCCACAUCUACGAAUUCUAACCAUAGAGAGGUUAUCCGCUCACGGAGAUCGGAAGAGCACACGU
B17: target 1 MT 5'PFS ACG 3'PFS UGU (mixed)
RNA 1: CACCCGUGCAAAAAUGCAGGGGUCUAAAACUGAGCGGAUAACCUCUCUAUGG
RNA 2: GGGAAUGGAUCCACAUCUACGAAUUCACGCCAUAGAGAGGUUAUCCGCUCAUGUAGAUCGGAAGAGCACACGU
B18: target 1 MT 5'PFS GGC 3'PFS CGG (mixed)
RNA 1: CACCCGUGCAAAAAUGCAGGGGUCUAAAACUGAGCGGAUAACCUCUCUAUGG
RNA 2: GGGAAUGGAUCCACAUCUACGAAUUCGGCCCAUAGAGAGGUUAUCCGCUCACGGAGAUCGGAAGAGCACACGU
B19: target 1 MT 5'PFS GAC 3'PFS CUU (mixed)
RNA 1: CACCCGUGCAAAAAUGCAGGGGUCUAAAACUGAGCGGAUAACCUCUCUAUGG
RNA 2: GGGAAUGGAUCCACAUCUACGAAUUCGACCCAUAGAGAGGUUAUCCGCUCACUUAGAUCGGAAGAGCACACGU
B20: target 1 MT 5'PFS GCG 3'PFS UAA (mixed)
RNA 1: CACCCGUGCAAAAAUGCAGGGGUCUAAAACUGAGCGGAUAACCUCUCUAUGG
RNA 2: GGGAAUGGAUCCACAUCUACGAAUUCGCGCCAUAGAGAGGUUAUCCGCUCAUAAAGAUCGGAAGAGCACACGU
B21: target 1 MT 5'PFS GUA 3'PFS CUC (mixed)
RNA 1: CACCCGUGCAAAAAUGCAGGGGUCUAAAACUGAGCGGAUAACCUCUCUAUGG
RNA 2: GGGAAUGGAUCCACAUCUACGAAUUCGUACCAUAGAGAGGUUAUCCGCUCACUCAGAUCGGAAGAGCACACGU
B22: target 1 MT 5'PFS AAU 3'PFS ACA (mixed)
RNA 1: CACCCGUGCAAAAAUGCAGGGGUCUAAAACUGAGCGGAUAACCUCUCUAUGG
RNA 2: GGGAAUGGAUCCACAUCUACGAAUUCAAUCCAUAGAGAGGUUAUCCGCUCAACAAGAUCGGAAGAGCACACGU
B23: target 1 C7G,C21A (mixed)
RNA 1: CACCCGUGCAAAAAUGCAGGGGUCUAAAACUGAGCGGAUAACCUCUCUAUGG
RNA 2: GGGAAUGGAUCCACAUCUACGAAUUCGUACAAUAGAGAGGUUAUGCGCUCACCGAGAUCGGAAGAGCACACGU
B24: target 1 MT 5'PFS GUU 3'PFS CCA (mixed)
RNA 1: CACCCGUGCAAAAAUGCAGGGGUCUAAAACUGAGCGGAUAACCUCUCUAUGG
RNA 2: GGGAAUGGAUCCACAUCUACGAAUUCGUUCCAUAGAGAGGUUAUCCGCUCACCAAGAUCGGAAGAGCACACGU
B25: target 1 insC 3' of 11,insA 3' of 5 (mixed)
RNA 1: CACCCGUGCAAAAAUGCAGGGGUCUAAAACUGAGCGGAUAACCUCUCUAUGG
RNA 2: GGGAAUGGAUCCACAUCUACGAAUUCGUACCAUAGAGAGGUCUAUCCGACUCACCGAGAUCGGAAGAGCACACGU
B26: target 1 MT 5'PFS AAU 3'PFS ACG (mixed)
RNA 1: CACCCGUGCAAAAAUGCAGGGGUCUAAAACUGAGCGGAUAACCUCUCUAUGG
RNA 2: GGGAAUGGAUCCACAUCUACGAAUUCAAUCCAUAGAGAGGUUAUCCGCUCAACGAGAUCGGAAGAGCACACGU
B27: target 1 MT 5'PFS GUG 3'PFS GUC (mixed)
RNA 1: CACCCGUGCAAAAAUGCAGGGGUCUAAAACUGAGCGGAUAACCUCUCUAUGG
RNA 2: GGGAAUGGAUCCACAUCUACGAAUUCGUGCCAUAGAGAGGUUAUCCGCUCAGUCAGAUCGGAAGAGCACACGU
B28: target 1 insU 3' of 12,insA 3' of 7 (mixed)
RNA 1: CACCCGUGCAAAAAUGCAGGGGUCUAAAACUGAGCGGAUAACCUCUCUAUGG
RNA 2: GGGAAUGGAUCCACAUCUACGAAUUCGUACCAUAGAGAGGUUUAUCACGCUCACCGAGAUCGGAAGAGCACACGU

What follows are binders tested against T1, EsCas13d, nuclease-dead (assay: crRNA (strand 1, pre-loaded); Mg2+; 40 mM Tris-HCl pH 7.5, 150 mM NaCl, 6 mM MgCl2, 1 mM DTT, 0.1% Tween-20, 0.2 mg/ml BSA; 25 C; 10 min per concentration, then washed). Conditions: tags: His6-TwinStrep-SUMO cleaved; N-terminal SNAP kept (SNAP-Surface 488); label: 3' end held by stalled T7 RNA polymerase.

Going from B1 to B2, the Kd rises from 0.00445 ± 0.0015 µM to 0.0795 ± 0.0275 µM (18-fold). The first binds more tightly here.

First: B3
Second: B4
The Kd of the first is 1.7-fold higher: 0.0132 ± 0.0023 µM for the first, 0.00789 ± 0.00047 µM for the second. The second binds more tightly here.

B5 and B6 are within error of each other in Kd: 0.0106 ± 0.00175 µM for the first, 0.00851 ± 0.000595 µM for the second.

Going from B7 to B8, the Kd rises from 0.0123 ± 0.00295 µM to 0.05 ± 0.023 µM (4.1-fold). The first binds more tightly here.

First: B9
Second: B10
The Kd of the first is 1.8-fold higher: 0.0205 ± 0.0075 µM for the first, 0.0112 ± 0.00155 µM for the second.

Compared with B11, B12 is 7.9-fold higher in Kd: 0.0102 ± 0.0007 µM for the first, 0.081 ± 0.034 µM for the second.

B13 and B14 are within error of each other in Kd: 0.0175 ± 0.004 µM for the first, roughly 0.0185 µM for the second.

B15 and B16 are within error of each other in Kd: 0.062 ± 0.0215 µM for the first, 0.0555 ± 0.017 µM for the second.

Compared with B17, B18 is 2.7-fold lower in Kd: roughly 0.0745 µM for the first, 0.0275 ± 0.0055 µM for the second. The second binds more tightly here.

B19 and B20 are within error of each other in Kd: 0.0121 ± 0.00365 µM for the first, 0.0106 ± 0.0016 µM for the second.

Going from B21 to B22, the Kd rises from 0.0138 ± 0.00115 µM to roughly 0.032 µM (2.3-fold).

B23 and B24 are within error of each other in Kd: 0.03 ± 0.0023 µM for the first, 0.034 ± 0.008 µM for the second.

Going from B25 to B26, the Kd rises from 0.0079 ± 0.0008 µM to 0.047 ± 0.013 µM (5.9-fold).

Compared with B27, B28 is 3.2-fold lower in Kd: 0.017 ± 0.0026 µM for the first, 0.00536 ± 0.0002 µM for the second.
